Assays:
3×MBT domain of L3MBTL1 = experiment: Triple SILAC pull-down, 3xMBT/3xMBTD355N ratio (cytoplasmic, nuclear and chromatin fractions of 293T cells); type: binding, human; conditions: SILAC ratio, pull-down 3xMBT vs 3xMBTD355N; for 3xMBT/D355N UNC Heavy: experiment with UNC0638 in heavy SILAC media; for 3xMBT/D355N UNC Light: experiment with UNC0638 in light SILAC media;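 as to all read-outs here: proteins quantified with MaxQuant, requiring at least two unique peptides and quantification in both label directions, normalized to the mean of proteins from a digested loading control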
G9a and GLP = molecular target: T1, G9a and GLP (Homo sapiens, UniProt Q96KQ7+Q9H9B1); experiment: Triple SILAC pull-down after UNC0638 treatment of 293T cells, DMSO/UNC0638 ratio of protein captured by 3×MBT; type: cell-based; parameters: endogenous in cells; host or cells: HEK 293T; conditions: for Relative to UNC0638 UNC Heavy / Relative to UNC0638 UNC Light: SILAC ratio DMSO/UNC0638 of protein pulled down with 3xMBT; for Relative to UNC0638 UNC Heavy: UNC0638 in heavy SILAC media; for Relative to UNC0638 UNC Light: UNC0638 in light SILAC media; for Relative to UNC0638 Average: average of UNC Light and UNC Heavy experiments;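 as to all read-outs here: mass spectrometry (Q-Exactive) SILAC quantitation, DMSO/UNC0638 ratio computed after subtracting 3×MBTD355N mutant pull-down background, only proteins with at least twofold 3×MBT over mutant signal considered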
T1 sequence (Q96KQ7 2-1210 limits assumed): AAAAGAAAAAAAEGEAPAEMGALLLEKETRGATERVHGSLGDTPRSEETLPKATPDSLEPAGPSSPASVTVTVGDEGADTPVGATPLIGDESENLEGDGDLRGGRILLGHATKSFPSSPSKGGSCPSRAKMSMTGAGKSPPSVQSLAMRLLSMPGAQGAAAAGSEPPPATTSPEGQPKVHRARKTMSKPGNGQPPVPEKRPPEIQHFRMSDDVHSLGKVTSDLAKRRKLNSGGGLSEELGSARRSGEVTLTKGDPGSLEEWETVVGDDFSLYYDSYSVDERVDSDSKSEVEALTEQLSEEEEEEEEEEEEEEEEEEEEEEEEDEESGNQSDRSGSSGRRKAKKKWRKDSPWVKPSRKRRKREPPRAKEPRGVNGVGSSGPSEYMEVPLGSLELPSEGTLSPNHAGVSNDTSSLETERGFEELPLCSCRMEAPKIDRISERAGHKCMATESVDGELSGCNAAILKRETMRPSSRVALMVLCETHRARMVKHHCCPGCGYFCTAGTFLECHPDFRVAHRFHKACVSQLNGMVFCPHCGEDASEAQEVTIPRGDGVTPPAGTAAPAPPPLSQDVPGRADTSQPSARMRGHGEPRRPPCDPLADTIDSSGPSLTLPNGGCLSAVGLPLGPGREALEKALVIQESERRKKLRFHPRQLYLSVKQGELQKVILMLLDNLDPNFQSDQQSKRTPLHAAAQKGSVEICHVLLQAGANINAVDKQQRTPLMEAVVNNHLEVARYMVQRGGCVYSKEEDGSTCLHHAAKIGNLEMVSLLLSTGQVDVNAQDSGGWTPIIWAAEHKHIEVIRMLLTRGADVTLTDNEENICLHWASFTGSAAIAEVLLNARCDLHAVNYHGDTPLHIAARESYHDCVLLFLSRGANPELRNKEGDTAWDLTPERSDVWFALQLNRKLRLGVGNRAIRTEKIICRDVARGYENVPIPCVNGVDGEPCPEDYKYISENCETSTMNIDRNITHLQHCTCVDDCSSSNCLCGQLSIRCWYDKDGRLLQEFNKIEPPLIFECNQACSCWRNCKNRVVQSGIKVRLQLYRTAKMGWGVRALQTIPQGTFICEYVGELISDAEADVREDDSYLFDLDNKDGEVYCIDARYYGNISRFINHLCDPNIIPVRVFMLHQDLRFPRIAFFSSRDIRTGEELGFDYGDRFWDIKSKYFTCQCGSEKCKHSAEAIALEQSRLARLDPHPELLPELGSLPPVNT
T1 sequence (Q9H9B1 2-1298 limits assumed): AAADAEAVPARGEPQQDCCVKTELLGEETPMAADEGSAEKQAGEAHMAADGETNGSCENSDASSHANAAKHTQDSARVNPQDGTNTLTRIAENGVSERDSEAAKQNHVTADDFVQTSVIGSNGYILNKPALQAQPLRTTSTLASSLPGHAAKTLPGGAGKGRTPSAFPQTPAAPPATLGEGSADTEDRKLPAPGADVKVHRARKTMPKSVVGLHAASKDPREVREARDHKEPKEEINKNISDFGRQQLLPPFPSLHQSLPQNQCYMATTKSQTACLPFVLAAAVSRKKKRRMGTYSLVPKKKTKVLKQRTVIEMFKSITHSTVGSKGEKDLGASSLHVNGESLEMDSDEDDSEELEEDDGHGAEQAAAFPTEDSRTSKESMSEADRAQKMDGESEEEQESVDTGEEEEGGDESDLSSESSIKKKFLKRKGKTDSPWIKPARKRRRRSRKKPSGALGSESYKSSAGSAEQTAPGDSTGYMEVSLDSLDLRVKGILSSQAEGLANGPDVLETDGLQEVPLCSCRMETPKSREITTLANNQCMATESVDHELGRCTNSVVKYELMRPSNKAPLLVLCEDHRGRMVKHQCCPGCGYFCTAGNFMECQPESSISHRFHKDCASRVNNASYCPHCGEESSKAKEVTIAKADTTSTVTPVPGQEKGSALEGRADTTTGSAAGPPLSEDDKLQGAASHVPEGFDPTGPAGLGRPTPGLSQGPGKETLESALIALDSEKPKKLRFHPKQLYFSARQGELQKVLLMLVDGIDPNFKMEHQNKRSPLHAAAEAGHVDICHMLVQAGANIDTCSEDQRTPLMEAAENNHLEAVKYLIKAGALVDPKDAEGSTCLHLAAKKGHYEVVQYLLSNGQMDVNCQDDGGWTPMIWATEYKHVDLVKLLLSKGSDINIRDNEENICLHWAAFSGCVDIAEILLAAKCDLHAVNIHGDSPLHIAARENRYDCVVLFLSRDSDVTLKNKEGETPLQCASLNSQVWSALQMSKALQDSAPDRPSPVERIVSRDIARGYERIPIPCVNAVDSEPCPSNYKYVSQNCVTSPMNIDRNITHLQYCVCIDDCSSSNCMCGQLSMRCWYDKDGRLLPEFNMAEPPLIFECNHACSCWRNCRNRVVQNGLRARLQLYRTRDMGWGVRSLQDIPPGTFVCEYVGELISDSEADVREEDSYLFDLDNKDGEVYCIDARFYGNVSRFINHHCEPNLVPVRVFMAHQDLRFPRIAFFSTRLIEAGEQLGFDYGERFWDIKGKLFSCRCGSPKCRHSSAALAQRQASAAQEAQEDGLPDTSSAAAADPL

B1: GIGYF2 (protein, UniProt Q6Y7W6 2-1299, looked up)
GRB10-interacting GYF protein …: AAETQTLNFGPEWLRALSSGGSITSPPLSPALPKYKLADYRYGREEMLALFLKDNKIPSDLLDKEFLPILQEEPLPPLALVPFTEEEQRNFSMSVNSAAVLRLTGRGGGGTVVGAPRGRSSSRGRGRGRGECGFYQRSFDEVEGVFGRGGGREMHRSQSWEERGDRRFEKPGRKDVGRPNFEEGGPTSVGRKHEFIRSESENWRIFREEQNGEDEDGGWRLAGSRRDGERWRPHSPDGPRSAGWREHMERRRRFEFDFRDRDDERGYRRVRSGSGSIDDDRDSLPEWCLEDAEEEMGTFDSSGAFLSLKKVQKEPIPEEQEMDFRPVDEGEECSDSEGSHNEEAKEPDKTNKKEGEKTDRVGVEASEETPQTSSSSARPGTPSDHQSQEASQFERKDEPKTEQTEKAEEETRMENSLPAKVPSRGDEMVADVQQPLSQIPSDTASPLLILPPPVPNPSPTLRPVETPVVGAPGMGSVSTEPDDEEGLKHLEQQAEKMVAYLQDSALDDERLASKLQEHRAKGVSIPLMHEAMQKWYYKDPQGEIQGPFNNQEMAEWFQAGYFTMSLLVKRACDESFQPLGDIMKMWGRVPFSPGPAPPPHMGELDQERLTRQQELTALYQMQHLQYQQFLIQQQYAQVLAQQQKAALSSQQQQQLALLLQQFQTLKMRISDQNIIPSVTRSVSVPDTGSIWELQPTASQPTVWEGGSVWDLPLDTTTPGPALEQLQQLEKAKAAKLEQERREAEMRAKREEEERKRQEELRRQQEEILRRQQEEERKRREEEELARRKQEEALRRQREQEIALRRQREEEERQQQEEALRRLEERRREEEERRKQEELLRKQEEEAAKWAREEEEAQRRLEENRLRMEEEAARLRHEEEERKRKELEVQRQKELMRQRQQQQEALRRLQQQQQQQQLAQMKLPSSSTWGQQSNTTACQSQATLSLAEIQKLEEERERQLREEQRRQQRELMKALQQQQQQQQQKLSGWGNVSKPSGTTKSLLEIQQEEARQMQKQQQQQQQHQQPNRARNNTHSNLHTSIGNSVWGSINTGPPNQWASDLVSSIWSNADTKNSNMGFWDDAVKEVGPRNSTNKNKNNASLSKSVGVSNRQNKKVEEEEKLLKLFQGVNKAQDGFTQWCEQMLHALNTANNLDVPTFVSFLKEVESPYEVHDYIRAYLGDTSEAKEFAKQFLERRAKQKANQQRQQQQLPQQQQQQPPQQPPQQPQQQDSVWGMNHSTLHSVFQTNQSNNQQSNFEAVQSGKKKKKQKMVRADPSLLGFSVNASSERLNMGEIETLDDY
**Q.** B1 was tested. Which “3xMBT/D355N UNC Heavy” value (3×MBT domain of L3MBTL1) did it give?
**A.** Its value is 2.62 log base 2.

**Q.** And the “3xMBT/D355N UNC Light” value (3×MBT domain of L3MBTL1)?
**A.** Its value is 3.04 log base 2.

**Q.** And the “Relative to UNC0638 UNC Heavy” value (G9a and GLP)?
**A.** The value was 0.34 log base 2.

**Q.** And the “Relative to UNC0638 UNC Light” value (G9a and GLP)?
**A.** The value was 0.05 log base 2.

**Q.** And the “Relative to UNC0638 Average” value (G9a and GLP)?
**A.** The value was 0.19 log base 2.

B2: CPSF6 (protein, UniProt Q16630 1-551, looked up)
Cleavage and polyadenylation …: MADGVDHIDIYADVGEEFNQEAEYGGHDQIDLYDDVISPSANNGDAPEDRDYMDTLPPTVGDDVGKGAAPNVVYTYTGKRIALYIGNLTWWTTDEDLTEAVHSLGVNDILEIKFFENRANGQSKGFALVGVGSEASSKKLMDLLPKRELHGQNPVVTPCNKQFLSQFEMQSRKTTQSGQMSGEGKAGPPGGSSRAAFPQGGRGRGRFPGAVPGGDRFPGPAGPGGPPPPFPAGQTPPRPPLGPPGPPGPPGPPPPGQVLPPPLAGPPNRGDRPPPPVLFPGQPFGQPPLGPLPPGPPPPVPGYGPPPGPPPPQQGPPPPPGPFPPRPPGPLGPPLTLAPPPHLPGPPPGAPPPAPHVNPAFFPPPTNSGMPTSDSRGPPPTDPYGRPPPYDRGDYGPPGREMDTARTPLSEAEFEEIMNRNRAISSSAISRAVSDASAGDYGSAIETLVTAISLIKQSKVSADDRCKVLISSLQDCLHGIESKSYGSGSRRERSRERDHSRSREKSRRHKSRSRDRHDDYYRERSRERERHRDRDRDRDRERDREREYRHR
**Q.** Which results are given for B2?
**A.** 3xMBT/D355N UNC Heavy (3×MBT domain of L3MBTL1): 1.89 log base 2; 3xMBT/D355N UNC Light (3×MBT domain of L3MBTL1): 3.10 log base 2; Relative to UNC0638 UNC Heavy (G9a and GLP): 0.30 log base 2; Relative to UNC0638 UNC Light (G9a and GLP): 0.09 log base 2; Relative to UNC0638 Average (G9a and GLP): 0.20 log base 2

B3: ORC3 (protein, UniProt Q9UBD5 1-711, looked up)
Origin recognition complex …: MATSSMSKGCFVFKPNSKKRKISLPIEDYFNKGKNEPEDSKLRFETYQLIWQQMKSENERLQEELNKNLFDNLIEFLQKSHSGFQKNSRDLGGQIKLREIPTAALVLGVNVTDHDLTFGSLTEALQNNVTPYVVSLQAKDCPDMKHFLQKLISQLMDCCVDIKSKEEESVHVTQRKTHYSMDSLSSWYMTVTQKTDPKMLSKKRTTSSQWQSPPVVVILKDMESFATKVLQDFIIISSQHLHEFPLILIFGIATSPIIIHRLLPHAVSSLLCIELFQSLSCKEHLTTVLDKLLLTTQFPFKINEKVLQVLTNIFLYHDFSVQNFIKGLQLSLLEHFYSQPLSVLCCNLPEAKRRINFLSNNQCENIRRLPSFRRYVEKQASEKQVALLTNERYLKEETQLLLENLHVYHMNYFLVLRCLHKFTSSLPKYPLGRQIRELYCTCLEKNIWDSEEYASVLQLLRMLAKDELMTILEKCFKVFKSYCENHLGSTAKRIEEFLAQFQSLDETKEEEDASGSQPKGLQKTDLYHLQKSLLEMKELRRSKKQTKFEVLRENVVNFIDCLVREYLLPPETQPLHEVVYFSAAHALREHLNAAPRIALHTALNNPYYYLKNEALKSEEGCIPNIAPDICIAYKLHLECSRLINLVDWSEAFATVVTAAEKMDANSATSEEMNEIIHARFIRAVSELELLGFIKPTKQKTDHVARLTWGGC
**Q.** B3 was tested. Which “3xMBT/D355N UNC Heavy” value (3×MBT domain of L3MBTL1) did it give?
**A.** Its value is 1.54 log base 2.

**Q.** And the “3xMBT/D355N UNC Light” value (3×MBT domain of L3MBTL1)?
**A.** The value was 2.54 log base 2.

**Q.** What about the “Relative to UNC0638 UNC Heavy” value (G9a and GLP) of the same molecule?
**A.** The value was 0.25 log base 2.

**Q.** What about the “Relative to UNC0638 UNC Light” value (G9a and GLP) of the same molecule?
**A.** Its value is 0.17 log base 2.

**Q.** And the “Relative to UNC0638 Average” value (G9a and GLP)?
**A.** The value was 0.21 log base 2.

From patent publication US20140274782A1, “AFFINITY REAGENTS AND METHODS FOR DETECTION, PURIFICATION, AND PROTEOMIC ANALYSIS OF METHYLATED PROTEINS” (The Board of Trustees of the Leland Stanford Junior …, priority 2013, published 2014)
